Measurements reported in patent US20210324080A1 (JIANGSU HUAIYU PHARMACEUTICAL, published 2021).
Positions count from the first letter of the chain named.

B1: 31C12F3 fully human CTLA-4 antibody (human IgG1, kappa) (antibody, V domains shown)
VH: QVQLVESGGGVVQPGRSLILSCAASGFTFSSYGMHWVRQAPGKGLEWVAVVWYDGSNKYYADSVKGRFTISRDNSKNTLYLQMSSLRAEDTAVYYCARGGIVVPGLFEYWGQGSLVTVSS
VL: DIQMTQSPSSLSASVGDRVAITCRTSQSISNLLNWYQQKPGKAPELLIYAPSSFQSGVPSRFRGSGSGTDFTLTISSLQPEDFATYYCQQSYSTPFTFGPGTKVDIK
notes: also called mAb010
B2: 92C8B6 fully human CTLA-4 antibody (human IgG1, kappa) (antibody, V domains shown)
VH: QVQLVESGGGVVQPGRSLRLSCAASGFTFSNFGMHWVRQAPGKGLEWVAVIWYDGSNKYYADSVKGRFTISRDNSKNTLFLQMNGLRAEDTAVYYCAKGGILMAGTLDYWGQGTLVTVSS
VL: B1 VL with A20T, T25A, I29V, N31T, L32Y, E45K, P51A, R63S, Y87F
notes: also called mAb42; mAb042

Key:
[1] = biological target: T1, monkey CTLA-4, full length, on transfected HEK293 cells (monkey); test: FACS, monkey CTLA-4 expressing cells
T1 construct: whole, on cells; also called cCTLA-4; HEK293-cCTLA-4
Excerpt: The pIRES plasmid with the monkey-derived CTLA-4 full-length gene was transfected into the HEK293 cell line to construct a HEK293 stable cell line containing monkey CTLA-4 (herein referred to as HEK293-cCTLA-4 stable cell line), wherein the database accession number of the monkey CTLA-4 nucleotide sequence is XM_005574014.1. The HEK293-hCTLA-4 stable cell line and HEK293-cCTLA-4 stable cell line were expanded in a T-75 cell culture flask to a 90% confluence. The medium was aspirated, and the cells were washed with HBSS buffer (Hanks Balanced Salt Solution, purchased from Invitrogen) twice, then treated with an enzyme-free cell dissociation fluid (Versene solution, purchased from Life technology) and the cells were collected. The cells were washed with HBSS buffer twice. After counted, the cells were diluted with HBSS buffer to 2×10⁶ cells per ml, added with 1% goat serum blocking solution, wherein the percentage was the mass percantage. Cells were incubated on ice for 30 minutes, then washed twice with HBSS buffer by centrifugation. The collected cells were suspended in the FACS buffer (HBSS containing 1% BSA, wherein the percentage was the mass percantage) to 2×10⁶ cells/ml, added as 100 microliters per well to a 96-well FACS reaction plate, added with 100 microliters per well of the purified CTLA-4 antibody sample to be tested, incubated on ice for 2 hours. The plate was washed twice with the FACS buffer by centrifugation, added with 100 microliters of fluorescent (Alexa 488)-labeled secondary antibodies (purchased from Invitrogen) per well, and incubated on ice for 1 hour. The plate was washed 3 times with FACS buffer by centrifugation, added with 100 μl fixative solution [4% (v/v) Paraformaldehyde] per well to suspend the cells. 10 minutes later, it was washed 2 times with FACS buffer by centrifugation. The cells were suspended with 100 microliters of FACS buffer, FACS (FACS Calibur, purchased from BD) was used for detection and the results were analyzed.

[2] = biological target: T2, CTLA-4-hFc (immunogen A; hFc-labeled CTLA-4 extracellular domain protein) (human, UniProt P16410 36-161); test: receptor-ligand blocking assay: CTLA-4 protein, antibody titrated, blocked ligand B7.1, inhibition (%)
T2 construct: range 36-161; Made in HEK293 cells, purified on protein A; also called CLTA-4-hFc; CTLA-4 protein; not shown: human IgG Fc fragment (hFc) of the pCpC vector
T2 sequence (looked up): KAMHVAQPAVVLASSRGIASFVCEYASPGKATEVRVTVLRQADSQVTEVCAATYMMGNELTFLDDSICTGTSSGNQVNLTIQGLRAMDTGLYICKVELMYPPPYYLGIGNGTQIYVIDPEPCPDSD
Description: (§1) CTLA-4 extracellular domain protein (CTLA-4-hFc) was diluted with PBS to a final concentration of 1.0 μg/mL, and then added to a 96-well ELISA plate as 100 μl per well. The plate was covered with a plastic film and incubated overnight at 4° C. The plate was washed twice with plate washing solution [PBS containing 0.01% (v/v) Tween 20] on the next day, and added with blocking solution [PBS containing 0.01% (v/v) Tween 20 and 1% (w/w) BSA] and blocked at room temperature for 2 hours. […] After 2 hours, the plate was washed 3 times with a plate washing solution [PBS containing 0.01% (v/v) Tween 20]. HRP (horseradish peroxidase) labeled avidin diluent (purchased from Sigma) was added 100 microliters per well, and after the plate was incubated for 2 hours at 37° C., it was washed with plate washing solution [PBS containing 0.01% (v/v) Tween 20] for 3 times. […] TMB substrate was added to each well. After incubated at room temperature for 30 minutes, the plate was added with […] stop solution (1.0N HCl) to each well. An ELISA plate reader (SpectraMax 384plus, Molecular Device) was used to read the A450 nm value.

[3] = biological target: T3, human CTLA-4 (Y201V), full length, on transfected cells (human, UniProt P16410 36-223); test: FACS, human CTLA-4 expressing cells
T3 construct: whole, on cells; also called hCTLA-4; HEK293-hCTLA-4 (Y201V)
T3 sequence (looked up): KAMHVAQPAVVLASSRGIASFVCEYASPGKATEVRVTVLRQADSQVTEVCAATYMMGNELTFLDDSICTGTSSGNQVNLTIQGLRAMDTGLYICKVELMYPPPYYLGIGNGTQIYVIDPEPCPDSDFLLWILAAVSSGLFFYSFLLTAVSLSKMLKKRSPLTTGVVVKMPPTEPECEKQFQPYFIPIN

[4] = biological target: T2, CTLA-4-hFc (immunogen A; hFc-labeled …); test: blocking assay, CTLA-4 protein, competitor B7.1
Description: as §1

[5] = biological target: T2, CTLA-4-hFc (immunogen A; hFc-labeled …); test: blocking assay, CTLA-4 protein, competitor B7.2
Description: as §1

Binder | MFI at 0.000128 nM [1] | MFI at 0.0128 nM [1] | MFI at 0.064 nM [1] | MFI at 0.32 nM [1] | MFI at 1.6 nM [1] | MFI at 8 nM [1] | MFI at 40 nM [1] | MFI at 200 nM [1] | IC50 (read off the curve) [2] | MFI at 0.000128 nM [3] | MFI at 0.0128 nM [3] | MFI at 0.064 nM [3] | MFI at 0.32 nM [3] | MFI at 1.6 nM [3] | MFI at 8 nM [3] | MFI at 40 nM [3] | MFI at 200 nM [3] | % Block at 0.000128 nM [4] | % Block at 0.0128 nM [4] | % Block at 0.064 nM [4] | further results
B1 | 2 | 34 | 98 | 261 | 455 | 654 | 712 | 668 | ~1 nM | 3 | 34 | 96 | 260 | 547 | 756 | 941 | 998 | 0% | 5.1% | 30.4% | % Block at 0.32 nM [4]: 74.5%; % Block at 1.6 nM [4]: 95.9%; % Block at 8 nM [4]: 98.5%; % Block at 40 nM [4]: 99.1%; % Block at 200 nM [4]: 99.3%; % Block at 0.000128 nM [5]: 0%; % Block at 0.0128 nM [5]: 25.6%; % Block at 0.064 nM [5]: 48.1%; % Block at 0.32 nM [5]: 84.4%; % Block at 1.6 nM [5]: 99%; % Block at 8 nM [5]: 99.1%; % Block at 40 nM [5]: 99.1%; % Block at 200 nM [5]: 99.2%
B2 | 2 | 22 | 68 | 208 | 465 | 722 | 800 | 711 | ~2 nM | 3 | 23 | 67 | 203 | 509 | 827 | 1040 | 1060 | 0% | 5.3% | 21.4% | % Block at 0.32 nM [4]: 65.1%; % Block at 1.6 nM [4]: 93.7%; % Block at 8 nM [4]: 98.1%; % Block at 40 nM [4]: 98.9%; % Block at 200 nM [4]: 99.3%; % Block at 0.000128 nM [5]: 0%; % Block at 0.0128 nM [5]: 25%; % Block at 0.064 nM [5]: 36.7%; % Block at 0.32 nM [5]: 78.5%; % Block at 1.6 nM [5]: 98.7%; % Block at 8 nM [5]: 99.2%; % Block at 40 nM [5]: 99.2%; % Block at 200 nM [5]: 99.2%
